This is an account of results in patent publication US20250339531A1, “DUX4 POLYPEPTIDES AND NUCLEIC ACIDS FOR TREATING INFLAMMATORY AND AUTOIMMUNE CONDITIONS” (Fred Hutchinson Cancer Center, priority 2021, published 2025).

This test deals with proteins that co-immunoprecipitated with DUX4-CTD constructs expressed in MB135 myoblasts. Kind of test: LC-MS of proteins co-immunoprecipitated with DUX4-CTD (Table 1) and western validation. It counts as binding, human. On the set-up: key to 4. mL1dL2 + Dox + IFNG / 4. + IFNG mix / 4. longCTD + Dox + IFNG / 3. + IFNg + Dox longCTD / 3. + Dox longCTD / 3. + IFNG longCTD: peptide-spectrum matches (PSMs) per protein. As to conditions: for 4. longCTD + Dox + IFNG: LC-MS counts of the listed protein co-immunoprecipitated with DUX4-CTD bait longCTD, experiment 4, Dox + IFNG; for 3. + IFNg + Dox longCTD: experiment 3, IFNg + Dox; for SUM of PSMS: sum over all samples; for 3. + Dox longCTD: experiment 3, Dox only. Put shortly: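 Two independent experiments compared uninduced, doxycycline and doxycycline+IFNG MB135iDUX4-CTD (plus MB135iDUX4mL1dL2) myoblasts. Anti-FLAG pulldowns (3 h, 4 °C) were eluted in LDS buffer for western validation or with FLAG peptide for trypsin digestion and Orbitrap LC-MS; hits needed ≥2 PSMs in both experiments, ranked by total PSMs.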

B1: P05141 (protein, UniProt P05141 1-298, looked up)
chain: MTDAAVSFAKDFLAGGVAAAISKTAVAPIERVKLLLQVQHASKQITADKQYKGIIDCVVRIPKEQGVLSFWRGNLANVIRYFPTQALNFAFKDKYKQIFLGGVDKRTQFWLYFAGNLASGGAAGATSLCFVYPLDFARTRLAADVGKAGAEREFRGLGDCLVKIYKSDGIKGLYQGFNVSVQGIIIYRAAYFGIYDTAKGMLPDPKNTHIVISWMIAQTVTAVAGLTSYPFDTVRRRMMMQSGRKGTDIMYTGTLDCWRKIARDEGGKAFFKGAWSNVLRGMGGAFVLVLYDEIKKYT
modifications: full-length
For the molecule B1, the “4. longCTD + Dox + IFNG” value is given as 6 and the “SUM of PSMS” value was 9. The “3. + IFNg + Dox longCTD” value (bait longCTD) came out at 3.

B2: P04843 (protein, UniProt P04843 1-607, looked up)
chain: MEAPAAGLFLLLLLGTWAPAPGSASSEAPPLINEDVKRTVDLSSHLAKVTAEVVLAHLGGGSTSRATSFLLALEPELEARLAHLGVQVKGEDEEENNLEVRETKIKGKSGRFFTVKLPVALDPGAKISVIVETVYTHVLHPYPTQITQSEKQFVVFEGNHYFYSPYPTKTQTMRVKLASRNVESYTKLGNPTRSEDLLDYGPFRDVPAYSQDTFKVHYENNSPFLTITSMTRVIEVSHWGNIAVEENVDLKHTGAVLKGPFSRYDYQRQPDSGISSIRSFKTILPAAAQDVYYRDEIGNVSTSHLLILDDSVEMEIRPRFPLFGGWKTHYIVGYNLPSYEYLYNLGDQYALKMRFVDHVFDEQVIDSLTVKIILPEGAKNIEIDSPYEISRAPDELHYTYLDTFGRPVIVAYKKNLVEQHIQDIVVHYTFNKVLMLQEPLLVVAAFYILFFTVIIYVRLDFSITKDPAAEARMKVACITEQVLTLVNKRIGLYRHFDETVNRYKQSRDISTLNSGKKSLETEHKALTSEIALLQSRLKTEGSDLCDRVSEMQKLDAQVKELVLKSAVEAERLVAGKLKKDTYIENEKLISGKRQELVTKIDHILDAL
modifications: full-length
Consider B2, for which the “4. longCTD + Dox + IFNG” value is listed as 2 and the “SUM of PSMS” value is recorded as 30. Also, for the setting “bait longCTD”, the “3. + Dox longCTD” value stood at 4 and the “3. + IFNg + Dox longCTD” value amounted to 14. In addition, the “3. + IFNG longCTD” value (bait longCTD, experiment 3, IFNG only, no doxycycline (bait at background level)) was determined as 1.

B3: P06702 (protein, UniProt P06702 1-114, looked up)
chain: MTCKMSQLERNIETIINTFHQYSVKLGHPDTLNQGEFKELVRKDLQNFLKKENKNEKVIEHIMEDLDTNADKQLSFEEFIMLMARLTWASHEKMHEGDEGPGHHHKPGLGEGTP
modifications: full-length
As to B3, the “SUM of PSMS” value was 4. Moreover, for the setting “bait longCTD”, the “3. + Dox longCTD” value came out at 1 and the “3. + IFNg + Dox longCTD” value stood at 1.

B4: Q00325 (protein, UniProt Q00325 1-362, looked up)
chain: MFSSVAHLARANPFNTPHLQLVHDGLGDLRSSSPGPTGQPRRPRNLAAAAVEEQYSCDYGSGRFFILCGLGGIISCGTTHTALVPLDLVKCRMQVDPQKYKGIFNGFSVTLKEDGVRGLAKGWAPTFLGYSMQGLCKFGFYEVFKVLYSNMLGEENTYLWRTSLYLAASASAEFFADIALAPMEAAKVRIQTQPGYANTLRDAAPKMYKEEGLKAFYKGVAPLWMRQIPYTMMKFACFERTVEALYKFVVPKPRSECSKPEQLVVTFVAGYIAGVFCAIVSHPADSVVSVLNKEKGSSASLVLKRLGFKGVWKGLFARIIMIGTLTALQWFIYDSVKVYFRLPRPPPPEMPESLKKKLGLTQ
modifications: full-length
On to B4, for which the “4. longCTD + Dox + IFNG” value is 2 and the “SUM of PSMS” value is recorded as 8. Moreover, the “3. + IFNg + Dox longCTD” value (bait longCTD) is listed as 1.

B5: O43175 (protein, UniProt O43175 1-533, looked up)
chain: MAFANLRKVLISDSLDPCCRKILQDGGLQVVEKQNLSKEELIAELQDCEGLIVRSATKVTADVINAAEKLQVVGRAGTGVDNVDLEAATRKGILVMNTPNGNSLSAAELTCGMIMCLARQIPQATASMKDGKWERKKFMGTELNGKTLGILGLGRIGREVATRMQSFGMKTIGYDPIISPEVSASFGVQQLPLEEIWPLCDFITVHTPLLPSTTGLLNDNTFAQCKKGVRVVNCARGGIVDEGALLRALQSGQCAGAALDVFTEEPPRDRALVDHENVISCPHLGASTKEAQSRCGEEIAVQFVDMVKGKSLTGVVNAQALTSAFSPHTKPWIGLAEALGTLMRAWAGSPKGTIQVITQGTSLKNAGNCLSPAVIVGLLKEASKQADVNLVNAKLLVKEAGLNVTTSHSPAAPGEQGFGECLLAVALAGAPYQAVGLVQGTTPVLQGLNGAVFRPEVPLRRDLPLLLFRTQTSDPAMLPTMIGLLAEAGVRLLSYQTSLVSDGETWHVMGISSLLPSLEAWKQHVTEAFQFHF
modifications: full-length
As for B5, the “4. longCTD + Dox + IFNG” value was 1 and the “SUM of PSMS” value is recorded as 6. Where the note is “bait longCTD”, the “3. + Dox longCTD” value came to 1 and the “3. + IFNg + Dox longCTD” value was found to be 3.

B6: P50454 (protein, UniProt P50454 1-418, looked up)
chain: MRSLLLLSAFCLLEAALAAEVKKPAAAAAPGTAEKLSPKAATLAERSAGLAFSLYQAMAKDQAVENILVSPVVVASSLGLVSLGGKATTASQAKAVLSAEQLRDEEVHAGLGELLRSLSNSTARNVTWKLGSRLYGPSSVSFADDFVRSSKQHYNCEHSKINFRDKRSALQSINEWAAQTTDGKLPEVTKDVERTDGALLVNAMFFKPHWDEKFHHKMVDNRGFMVTRSYTVGVMMMHRTGLYNYYDDEKEKLQIVEMPLAHKLSSLIILMPHHVEPLERLEKLLTKEQLKIWMGKMQKKAVAISLPKGVVEVTHDLQKHLAGLGLTEAIDKNKADLSRMSGKKDLYLASVFHATAFELDTDGNPFDQDIYGREELRSPKLFYADHPFIFLVRDTQSGSLLFIGRLVRPKGDKMRDEL
modifications: full-length
Take B6: the “SUM of PSMS” value is 11. The “3. + IFNg + Dox longCTD” value (bait longCTD) is on record as 1.

B7: P13674 (protein, UniProt P13674 1-534, looked up)
chain: MIWYILIIGILLPQSLAHPGFFTSIGQMTDLIHTEKDLVTSLKDYIKAEEDKLEQIKKWAEKLDRLTSTATKDPEGFVGHPVNAFKLMKRLNTEWSELENLVLKDMSDGFISNLTIQRQYFPNDEDQVGAAKALLRLQDTYNLDTDTISKGNLPGVKHKSFLTAEDCFELGKVAYTEADYYHTELWMEQALRQLDEGEISTIDKVSVLDYLSYAVYQQGDLDKALLLTKKLLELDPEHQRANGNLKYFEYIMAKEKDVNKSASDDQSDQKTTPKKKGVAVDYLPERQKYEMLCRGEGIKMTPRRQKKLFCRYHDGNRNPKFILAPAKQEDEWDKPRIIRFHDIISDAEIEIVKDLAKPRLRRATISNPITGDLETVHYRISKSAWLSGYENPVVSRINMRIQDLTGLDVSTAEELQVANYGVGGQYEPHFDFARKDEPDAFKELGTGNRIATWLFYMSDVSAGGATVFPEVGASVWPKKGTAVFWYNLFASGEGDYSTRHAACPVLVGNKWVSNKWLHERGQEFRRPCTLSELE
modifications: full-length
Regarding B7, the “4. longCTD + Dox + IFNG” value was determined as 9 and the “SUM of PSMS” value is given as 45. Further, under “bait longCTD”, the “3. + Dox longCTD” value is 3 and the “3. + IFNg + Dox longCTD” value was determined as 5.

B8: Q12797 (protein, UniProt Q12797 1-758, looked up)
chain: MAQRKNAKSSGNSSSSGSGSGSTSAGSSSPGARRETKHGGHKNGRKGGLSGTSFFTWFMVIALLGVWTSVAVVWFDLVDYEEVLGKLGIYDADGDGDFDVDDAKVLLGLKERSTSEPAVPPEEAEPHTEPEEQVPVEAEPQNIEDEAKEQIQSLLHEMVHAEHVEGEDLQQEDGPTGEPQQEDDEFLMATDVDDRFETLEPEVSHEETEHSYHVEETVSQDCNQDMEEMMSEQENPDSSEPVVEDERLHHDTDDVTYQVYEEQAVYEPLENEGIEITEVTAPPEDNPVEDSQVIVEEVSIFPVEEQQEVPPETNRKTDDPEQKAKVKKKKPKLLNKFDKTIKAELDAAEKLRKRGKIEEAVNAFKELVRKYPQSPRARYGKAQCEDDLAEKRRSNEVLRGAIETYQEVASLPDVPADLLKLSLKRRSDRQQFLGHMRGSLLTLQRLVQLFPNDTSLKNDLGVGYLLIGDNDNAKKVYEEVLSVTPNDGFAKVHYGFILKAQNKIAESIPYLKEGIESGDPGTDDGRFYFHLGDAMQRVGNKEAYKWYELGHKRGHFASVWQRSLYNVNGLKAQPWWTPKETGYTELVKSLERNWKLIRDEGLAVMDKAKGLFLPEDENLREKGDWSQFTLWQQGRRNENACKGAPKTCTLLEKFPETTGCRRGQIKYSIMHPGTHVWPHTGPTNCRLRMHLGLVIPKEGCKIRCANETKTWEEGKVLIFDDSFEHEVWQDASSFRLIFIVDVWHPELTPQQRRSLPAI
modifications: full-length
With B8, the “SUM of PSMS” value was 11. For the same molecule, where the note is “bait longCTD”, the “3. + Dox longCTD” value is reported as 1 and the “3. + IFNg + Dox longCTD” value was 9.

B9: O95782 (protein, UniProt O95782 1-977, looked up)
chain: MPAVSKGDGMRGLAVFISDIRNCKSKEAEIKRINKELANIRSKFKGDKALDGYSKKKYVCKLLFIFLLGHDIDFGHMEAVNLLSSNKYTEKQIGYLFISVLVNSNSELIRLINNAIKNDLASRNPTFMCLALHCIANVGSREMGEAFAADIPRILVAGDSMDSVKQSAALCLLRLYKASPDLVPMGEWTARVVHLLNDQHMGVVTAAVSLITCLCKKNPDDFKTCVSLAVSRLSRIVSSASTDLQDYTYYFVPAPWLSVKLLRLLQCYPPPEDAAVKGRLVECLETVLNKAQEPPKSKKVQHSNAKNAILFETISLIIHYDSEPNLLVRACNQLGQFLQHRETNLRYLALESMCTLASSEFSHEAVKTHIDTVINALKTERDVSVRQRAADLLYAMCDRSNAKQIVSEMLRYLETADYAIREEIVLKVAILAEKYAVDYSWYVDTILNLIRIAGDYVSEEVWYRVLQIVTNRDDVQGYAAKTVFEALQAPACHENMVKVGGYILGEFGNLIAGDPRSSPPVQFSLLHSKFHLCSVATRALLLSTYIKFINLFPETKATIQGVLRAGSQLRNADVELQQRAVEYLTLSSVASTDVLATVLEEMPPFPERESSILAKLKRKKGPGAGSALDDGRRDPSSNDINGGMEPTPSTVSTPSPSADLLGLRAAPPPAAPPASAGAGNLLVDVFDGPAAQPSLGPTPEEAFLSELEPPAPESPMALLADPAPAADPGPEDIGPPIPEADELLNKFVCKNNGVLFENQLLQIGVKSEFRQNLGRMYLFYGNKTSVQFQNFSPTVVHPGDLQTQLAVQTKRVAAQVDGGAQVQQVLNIECLRDFLTPPLLSVRFRYGGAPQALTLKLPVTINKFFQPTEMAAQDFFQRWKQLSLPQQEAQKIFKANHPMDAEVTKAKLLGFGSALLDNVDPNPENFVGAGIIQTKALQVGCLLRLEPNAQAQMYRLTLRTSKEPVSRHLCELLAQQF
modifications: full-length
For B9, the “4. longCTD + Dox + IFNG” value amounted to 2 and the “SUM of PSMS” value worked out at 48. Also, for the setting “bait longCTD”, the “3. + Dox longCTD” value was 10 and the “3. + IFNg + Dox longCTD” value is given as 31.
